In publication doi:10.1101/331207 (bioRxiv, 2018):

Target: the molecule itself
Assay: cryo-EM structure

B1: human LRRC8A (leucine-rich repeat-containing 8A) wild-type protein (natural protein)
chain: MIPVTELRYFADTQPAYRILKPWWDVFTDYISIVMLMIAVFGGTLQVTQDKMICLPCKWVTKDSCNDSFRGWAAPGPEPTYPNSTILPTPDTGPTGIKYDLDRHQYNYVDAVCYENRLHWFAKYFPYLVLLHTLIFLACSNFWFKFPRTSSKLEHFVSILLKCFDSPWTTRALSETVVEESDPKPAFSKMNGSMDKKSSTVSEDVEATVPMLQRTKSRIEQGIVDRSETGVLDKKEGEQAKALFEKVKKFRTHVEEGDIVYRLYMRQTIIKVIKFILIICYTVYYVHNIKFDVDCTVDIESLTGYRTYRCAHPLATLFKILASFYISLVIFYGLICMYTLWWMLRRSLKKYSFESIREESSYSDIPDVKNDFAFMLHLIDQYDPLYSKRFAVFLSEVSENKLRQLNLNNEWTLDKLRQRLTKNAQDKLELHLFMLSGIPDTVFDLVELEVLKLELIPDVTIPPSIAQLTGLKELWLYHTAAKIEAPALAFLRENLRALHIKFTDIKEIPLWIYSLKTLEELHLTGNLSAENNRYIVIDGLRELKRLKVLRLKSNLSKLPQVVTDVGVHLQKLSINNEGTKLIVLNSLKKMANLTELELIRCDLERIPHSIFSLHNLQEIDLKDNNLKTIEEIISFQHLHRLTCLKLWYNHIAYIPIQIGNLTNLERLYLNRNKIEKIPTQLFYCRKLRYLDLSHNNLTFLPADIGLLQNLQNLAITANRIETLPPELFQCRKLRALHLGNNVLQSLPSRVGELTNLTQIELRGNRLECLPVELGECPLLKRSGLVVEEDLFNTLPPEVKERLWRADKEQA
stoichiometry N: 6
